The target of this assay is T1, Mcm10Δ150 (LexA fusion) (S. cerevisiae, UniProt P32354 151-571).
T1 construct: Mcm10, budding yeast, first 150 amino acids deleted; also called pBTM116-LEXA-mcm10Δ150; LexA-tagged Mcm10Δ150; source: yeast two-hybrid fusion (pBTM116); also overexpressed from the ADH1 promoter in yeast, in whole cell extract, for Co-IP
T1 sequence (looked up): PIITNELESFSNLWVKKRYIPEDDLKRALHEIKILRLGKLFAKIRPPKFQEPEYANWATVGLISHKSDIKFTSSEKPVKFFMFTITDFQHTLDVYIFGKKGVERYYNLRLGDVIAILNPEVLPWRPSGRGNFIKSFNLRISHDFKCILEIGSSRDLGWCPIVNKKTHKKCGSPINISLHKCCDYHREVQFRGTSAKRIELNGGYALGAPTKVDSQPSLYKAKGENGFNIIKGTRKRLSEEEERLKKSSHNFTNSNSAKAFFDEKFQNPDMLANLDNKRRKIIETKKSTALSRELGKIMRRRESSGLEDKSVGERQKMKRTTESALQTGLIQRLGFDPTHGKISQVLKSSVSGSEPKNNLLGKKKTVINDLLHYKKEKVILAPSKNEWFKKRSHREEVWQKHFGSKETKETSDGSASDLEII
Briefly: two-hybrid; yeast two-hybrid with pBTM116 (LexA) and pACT2 fusions; β-galactosidase activity in cell extracts, in triplicate from at least three clones. The settings on record: partners not purified.

B1: Mcm10 (LexA fusion, wild type) (natural protein, S. cerevisiae, UniProt P32354 1-571, looked up)
chain: MNDPREILAVDPYNNITSDEEDEQAIARELEFMERKRQALVERLKRKQEFKKPQDPNFEAIEVPQSPTKNRVKVGSHNATQQGTKFEGSNINEVRLSQLQQQPKPPASTTTYFMEKFQNAKKNEDKQIAKFESMMNARVHTFSTDEKKYVPIITNELESFSNLWVKKRYIPEDDLKRALHEIKILRLGKLFAKIRPPKFQEPEYANWATVGLISHKSDIKFTSSEKPVKFFMFTITDFQHTLDVYIFGKKGVERYYNLRLGDVIAILNPEVLPWRPSGRGNFIKSFNLRISHDFKCILEIGSSRDLGWCPIVNKKTHKKCGSPINISLHKCCDYHREVQFRGTSAKRIELNGGYALGAPTKVDSQPSLYKAKGENGFNIIKGTRKRLSEEEERLKKSSHNFTNSNSAKAFFDEKFQNPDMLANLDNKRRKIIETKKSTALSRELGKIMRRRESSGLEDKSVGERQKMKRTTESALQTGLIQRLGFDPTHGKISQVLKSSVSGSEPKNNLLGKKKTVINDLLHYKKEKVILAPSKNEWFKKRSHREEVWQKHFGSKETKETSDGSASDLEII
notes: Mcm10, budding yeast, called full-length in the Co-IP with LexA-tagged constructs; also called LexA-tagged Mcm10; full-length Mcm10; source: yeast two-hybrid fusion (pBTM116); also overexpressed in yeast, in whole cell extract, for Co-IP
Regarding B1, the “reduction of binding relative to wild-type Mcm10” value was around 85%.

The values are drawn from article PMC4117747, “The N-terminus of Mcm10 is important for interaction with the 9-1-1 clamp and in resistance to DNA damage” (Nucleic Acids Research, 2014).
